Experimental data published in patent publication US20110311550A1.

Experiments:
Assay in all cases: ELISA, lectin-captured E1E2 lysate, Ab 1 ug/ml
[1] = molecular target: E1E2 complex (H77) with E2 mutation H617A (HCV genotype 1a, isolate H77) (UniProt P27958)
[2] = molecular target: E1E2 complex (H77) with E1 mutation S273A (HCV genotype 1a, isolate H77) (UniProt P27958)
[3] = molecular target: E1E2 complex (H77) with E2 mutation G436A (HCV genotype 1a, isolate H77) (UniProt P27958)
[4] = molecular target: E1E2 complex (H77) with E1 mutation R195A (HCV genotype 1a, isolate H77) (UniProt P27958)
[5] = molecular target: E1E2 complex (H77) with E1 mutation M324A (HCV genotype 1a, isolate H77) (UniProt P27958)
[6] = molecular target: E1E2 complex (H77) with E1 mutation P224A (HCV genotype 1a, isolate H77) (UniProt P27958)
[7] = molecular target: E1E2 complex (H77) with E1 mutation N305A/N325A (HCV genotype 1a, isolate H77) (UniProt P27958)
[8] = molecular target: E1E2 complex (H77) with E1 mutation H298A (HCV genotype 1a, isolate H77) (UniProt P27958)
[9] = molecular target: E1E2 complex (H77) with E1 mutation V246A (HCV genotype 1a, isolate H77) (UniProt P27958)
[10] = molecular target: E1E2 complex (H77) with E1 mutation M318A (HCV genotype 1a, isolate H77) (UniProt P27958)
[11] = molecular target: E1E2 complex (H77) with E1 mutation Y192A (HCV genotype 1a, isolate H77) (UniProt P27958)
[12] = molecular target: E1E2 complex (H77) with E1 mutation W239A (HCV genotype 1a, isolate H77) (UniProt P27958)
[13] = molecular target: E1E2 complex (H77) with E1 mutation H316A (HCV genotype 1a, isolate H77) (UniProt P27958)
[14] = molecular target: E1E2 complex (H77) with E1 mutation W320A (HCV genotype 1a, isolate H77) (UniProt P27958)
[15] = molecular target: E1E2 complex (H77) with E1 mutation N234A (HCV genotype 1a, isolate H77) (UniProt P27958)
[16] = molecular target: E1E2 complex (H77) with E1 mutation Q302A (HCV genotype 1a, isolate H77) (UniProt P27958)
[17] = molecular target: E1E2 complex (H77) with E1 mutation H352A (HCV genotype 1a, isolate H77) (UniProt P27958)
[18] = molecular target: E1E2 complex (H77) with E1 mutation N305A (HCV genotype 1a, isolate H77) (UniProt P27958)
[19] = molecular target: E1E2 complex (H77) with E1 mutation V266A (HCV genotype 1a, isolate H77) (UniProt P27958)

mouse anti-E1 MAb A4 (antibody)
Binding relative to wt (%) [1]: 140%
Binding relative to wt (%) [2]: 38%
Binding relative to wt (%) [3]: 96%
Binding relative to wt (%) [4]: 197%
Binding relative to wt (%) [5]: 80%
Binding relative to wt (%) [6]: 99%
Binding relative to wt (%) [7]: 114%
Binding relative to wt (%) [8]: 164%
Binding relative to wt (%) [9]: 96%
Binding relative to wt (%) [10]: 97%
Binding relative to wt (%) [11]: 134%
Binding relative to wt (%) [12]: 103%
Binding relative to wt (%) [13]: 95%
Binding relative to wt (%) [14]: 105%
Binding relative to wt (%) [15]: 105%
Binding relative to wt (%) [16]: 215%
Binding relative to wt (%) [17]: 85%
Binding relative to wt (%) [18]: 123%
Binding relative to wt (%) [19]: 96%
